Assay results: patent US20220389073A1, “Novel Mini-Insulin With Extended C-Terminal A Chain” (University of Utah Research Foundation, priority 2019, published 2022)

Key:
[1] = known property of shortened human insulin; cited from earlier work
[2] = target: hIR (Homo sapiens, UniProt P06213); experiment: hIR activation / insulin signaling activation; type: cell-based

Row | Substance | oligomeric state [1] | hIR activation activity compared with enzymatically synthetic DOI [2] | potency, fold weaker than human insulin ([2]; relative to human insulin) | potency for hIR activation compared with human insulin ([2]; FIG. 7)
1 | Des-octapeptide (B23-30) human insulin [DOI] | monomeric | same | 1,000 fold | –
2 | quadruple DOI mutant: DOI with A8 His, A9 Arg, B10 Glu, B20 Tyr; SEQ ID NO: 12 and SEQ ID NO: 3 | – | – | – | comparable to that of human insulin
